Here are results for one substance from patent US20160327558.

As to Human cathepsin B, the “in vitro protease activity measurements (zRR-AMC cleavage)” value with probe 5 (FITC-LRSR-AOMK) and in the data set with z-VRPR-FMK was “also abrogated cathepsin B activity even though slightly less efficient” each time.
